Here are results for 16 molecules from US20240270821A1, “GIP/GLP1/GCG TRI-RECEPTOR AGONISTS AND USES THEREOF” (priority 2023, published 2024).

What all share (assay): cell-based or functional assay
One test addresses hGLP-1R (Homo sapiens, UniProt P43220).
Test [1] concerns the target T1, human GIP receptor (human) (UniProt P48546).
T1 sequence (looked up): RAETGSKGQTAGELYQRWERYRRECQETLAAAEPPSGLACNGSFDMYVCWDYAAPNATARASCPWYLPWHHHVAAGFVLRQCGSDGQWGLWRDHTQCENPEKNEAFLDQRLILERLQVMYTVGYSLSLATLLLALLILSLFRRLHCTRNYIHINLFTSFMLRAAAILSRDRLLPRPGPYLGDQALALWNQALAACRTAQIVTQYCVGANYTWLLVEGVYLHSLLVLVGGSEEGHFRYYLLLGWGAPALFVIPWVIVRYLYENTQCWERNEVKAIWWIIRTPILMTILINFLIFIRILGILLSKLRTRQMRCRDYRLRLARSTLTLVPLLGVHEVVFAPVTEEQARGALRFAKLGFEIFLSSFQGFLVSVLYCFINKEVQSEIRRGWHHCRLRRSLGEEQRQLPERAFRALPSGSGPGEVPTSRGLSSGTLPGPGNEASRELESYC

The target in test [2] is human glucagon receptor (human) (UniProt P47871).
human glucagon receptor (human), sequence (P47871 26-477): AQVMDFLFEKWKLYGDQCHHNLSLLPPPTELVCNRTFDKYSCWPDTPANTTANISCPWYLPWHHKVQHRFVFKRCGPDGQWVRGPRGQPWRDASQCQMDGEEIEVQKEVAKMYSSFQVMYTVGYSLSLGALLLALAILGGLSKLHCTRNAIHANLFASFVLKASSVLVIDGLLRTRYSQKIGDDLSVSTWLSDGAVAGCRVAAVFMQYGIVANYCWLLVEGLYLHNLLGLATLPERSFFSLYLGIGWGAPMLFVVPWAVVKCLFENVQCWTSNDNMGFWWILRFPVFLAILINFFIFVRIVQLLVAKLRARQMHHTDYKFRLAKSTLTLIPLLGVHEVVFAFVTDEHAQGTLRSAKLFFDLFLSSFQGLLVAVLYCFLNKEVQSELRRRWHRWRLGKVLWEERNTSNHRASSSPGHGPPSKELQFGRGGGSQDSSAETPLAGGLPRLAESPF

hGLP-1R, sequence (P43220 24-463): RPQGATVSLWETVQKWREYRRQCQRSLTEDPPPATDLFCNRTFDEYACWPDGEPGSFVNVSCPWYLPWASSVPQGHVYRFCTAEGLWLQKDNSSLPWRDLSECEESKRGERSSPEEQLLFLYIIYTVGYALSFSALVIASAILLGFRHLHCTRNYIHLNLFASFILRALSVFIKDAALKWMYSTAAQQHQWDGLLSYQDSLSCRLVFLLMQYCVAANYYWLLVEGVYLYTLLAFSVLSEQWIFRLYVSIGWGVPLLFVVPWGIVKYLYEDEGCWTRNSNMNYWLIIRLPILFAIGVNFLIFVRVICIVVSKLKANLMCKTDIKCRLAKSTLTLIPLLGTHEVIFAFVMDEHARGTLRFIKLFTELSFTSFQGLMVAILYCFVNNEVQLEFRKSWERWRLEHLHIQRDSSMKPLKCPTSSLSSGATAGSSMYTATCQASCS

B1: Example 1109 (peptide)
chain: YXQGTFTSDXSQXLDXKAQXQFIEXLIEXGPSSGAPPPSGSEE
modifications: Aib, 4Pal, αMeL, Orn, Me4Pal, αMeY; acylated lysine; amide; synthetic construct; SITE 2: note = 2-Aminoisobutyric Acid; SITE 10: note = 3-(4-Pyridyl)-L-alanine; SITE 13: note = alpha-methyl-leucine; SITE 16: note = L-ornithine; SITE 17: note = Lysine is chemically modified through conjugation of the epsilon-amino group of the Lysine side chain with (2-[2-(2-
Regarding B1, the Relative cAMP EC50 came to 2.3 nM with hGLP-1R, 0.0626 nM in test [1] and 10.8 nM in test [2].

B2: Example 1113 (peptide)
chain: YXQGTFTSDXSQXLDXKAQXQFIEXLIEXGPSSGAPPPSGSEE
modifications: non-natural residues; lipidated Lys; C-terminal amide; synthetic construct; SITE 2: note = 2-Aminoisobutyric Acid; SITE 10: note = 3-(4-Pyridyl)-L-alanine; SITE 13: note = alpha-methyl-leucine; SITE 16: note = L-ornithine; SITE 17: note = Lysine is chemically modified through conjugation of the epsilon-amino group of the Lysine side chain with D-Glutami
In the case of B2, the Relative cAMP EC50 in the test with hGLP-1R was 1.12 nM; in test [1], 0.0414 nM; in test [2], 14.4 nM.

B3: Example 1107 (peptide)
chain: YXQGTFTSDXSQXLDXKAQXAFIEXLIAXGPSSGAPPPSGSEE
modifications: non-natural residues, lipidated Lys, C-terminal amide; synthetic construct; SITE 2: note = 2-Aminoisobutyric Acid; SITE 10: note = 3-(4-Pyridyl)-L-alanine; SITE 13: note = alpha-methyl-leucine; SITE 16: note = L-ornithine; SITE 17: note = Lysine is chemically modified through conjugation of the epsilon-amino group of the Lysine side chain with (gamma-Gl)
For B3, the Relative cAMP EC50 with hGLP-1R came out at 0.51 nM; in test [1], 0.0447 nM; in test [2], 5.66 nM.

B4: Example 937 (peptide)
chain: YXQGTFTSDXSQXLDXKAQXAFIEYLIEXGPSSGAPPPSGSEE
modifications: synthetic construct; SITE 2: note = 2-Aminoisobutyric Acid; SITE 10: note = 3-(4-Pyridyl)-L-alanine; SITE 13: note = alpha-methyl-leucine; SITE 16: note = L-ornithine; SITE 17: note = Lysine is chemically modified through conjugation of the epsilon-amino group of the Lysine side chain with (gamma-Gl)
On to B4, for which the Relative cAMP EC50 with hGLP-1R was 2.52 nM; in test [1], 0.222 nM; in test [2] it was 5.52 nM.

B5: Example 1112 (peptide)
chain: YXQGTFTSDXSQXLDXKAQXAFIEXLIEXGPSSGAPPPSGSEE
modifications: non-natural residues; acylated Lys; C-terminal amide; synthetic construct; SITE 2: note = 2-Aminoisobutyric Acid; SITE 10: note = 3-(4-Pyridyl)-L-alanine; SITE 13: note = alpha-methyl-leucine; SITE 16: note = L-ornithine; SITE 17: note = Lysine is chemically modified through conjugation of the epsilon-amino group of the Lysine side chain with D-Glutami
Regarding B5, the Relative cAMP EC50 in the test with hGLP-1R was 0.957 nM; in test [1] it was 0.254 nM; in test [2] it was 10.7 nM.

B6: Example 1119 (peptide)
chain: YXQGTFTSDXSQXLDKKAQXAFIEXLIEXGPSSGAPPPSGTGE
modifications: Aib, 4Pal, αMeL, Me4Pal; acylated Lys; C-terminal amide; synthetic construct; SITE 2: note = 2-Aminoisobutyric Acid; SITE 10: note = 3-(4-Pyridyl)-L-alanine; SITE 13: note = alpha-methyl-leucine; SITE 17: note = Lysine is chemically modified through conjugation of the epsilon-amino group of the Lysine side chain with (gamma-Glu)2-CO-(CH2)16-CO2H; SITE 20:
B6: the Relative cAMP EC50 with hGLP-1R amounted to 3.57 nM; in test [1] it was 0.0939 nM; in test [2], 7.61 nM.

B7: Example 1114 (peptide)
chain: YXQGTFTSDXSQXLDXKAQXAFIEXLIAXGPSSGAPPPSGSEE
modifications: not fully specified; Aib, 4Pal, αMeL, Orn, Me4Pal, αMeY; γGlu-C18 diacid Lys; C-term amide; synthetic construct; SITE 2: note = 2-Aminoisobutyric Acid; SITE 10: note = 3-(4-Pyridyl)-L-alanine; SITE 13: note = alpha-methyl-leucine; SITE 16: note = L-ornithine; SITE 17: note = Lysine is chemically modified through conjugation of the epsilon-amino group of the Lysine side chain with D-Glutami
Consider B7, for which the Relative cAMP EC50 with hGLP-1R came to 0.84 nM; in test [1], 0.0478 nM; in test [2], 11.5 nM.

B8: Example 945 (peptide)
chain: YXQGTFTSDXSQXLDKKAQXAFIEXLLEGGPSSGAPPPSGSEE
modifications: synthetic construct; SITE 2: note = 2-Aminoisobutyric Acid; SITE 10: note = 3-(4-Pyridyl)-L-alanine; SITE 13: note = alpha-methyl-leucine; SITE 17: note = Lysine is chemically modified through conjugation of the epsilon-amino group of the Lysine side chain with (gamma-Glu)2-CO-(CH2)16-CO2H; SITE 20:
B8: the Relative cAMP EC50 with hGLP-1R came out at 3.9 nM; in test [1], 0.246 nM; in test [2] it was 18 nM.

B9: Example 944 (peptide)
chain: YXQGTFTSDXSXXLDKKAQXAFIEXLLEGGPSSGAPPPSGSEE
modifications: synthetic construct; SITE 2: note = 2-Aminoisobutyric Acid; SITE 10: note = 3-(4-Pyridyl)-L-alanine; SITE 12: note = L-ornithine; SITE 13: note = alpha-methyl-leucine; SITE 17: note = Lysine is chemically modified through conjugation of the epsilon-amino group of the Lysine side chain with (gamma-Gl)
As for B9, the Relative cAMP EC50 with hGLP-1R was 4.86 nM; in test [1], 0.216 nM; in test [2] it was 6.16 nM.

B10: Example 946 (peptide)
chain: YXQGTFTSDXSQXLDXKAQXAFIEXLLEGGPSSGAPPPSGSEE
modifications: synthetic construct; SITE 2: note = 2-Aminoisobutyric Acid; SITE 10: note = 3-(4-Pyridyl)-L-alanine; SITE 13: note = alpha-methyl-leucine; SITE 16: note = L-ornithine; SITE 17: note = Lysine is chemically modified through conjugation of the epsilon-amino group of the Lysine side chain with (gamma-Gl)
Take B10: the values for the Relative cAMP EC50 (in the test with hGLP-1R; in test [1]; in test [2]) were 2.05 nM, 0.353 nM and 16.5 nM, respectively.

B11: Example 1122 (peptide)
chain: YXQGTFTSDXSQXLDKKAQXAFIEXLIEXGPSSGAPPPSGSEE
modifications: Aib, 4Pal, αMeL, Me4Pal; K (γGlu)2-C18 diacid; amide; synthetic construct; SITE 2: note = 2-Aminoisobutyric Acid; SITE 10: note = 3-(4-Pyridyl)-L-alanine; SITE 13: note = alpha-methyl-leucine; SITE 17: note = Lysine is chemically modified through conjugation of the epsilon-amino group of the Lysine side chain with (gamma-Glu)2-CO-(CH2)16-CO2H; SITE 20:
In the case of B11, the Relative cAMP EC50 in the test with hGLP-1R is 5.66 nM; in test [1], 0.109 nM; in test [2] it was 10.3 nM.

B12: Example 1117 (peptide)
chain: YXQGTFTSDXSQXLDKKAQXAFIEXLIEXGPSSGAPPPSGTGE
modifications: non-natural residues; Lys acylated AEEA-γGlu-C18 diacid; C-terminal amide; synthetic construct; SITE 2: note = 2-Aminoisobutyric Acid; SITE 10: note = 3-(4-Pyridyl)-L-alanine; SITE 13: note = alpha-methyl-leucine; SITE 17: note = Lysine is chemically modified through conjugation of the epsilon-amino group of the Lysine side chain with (2-[2-(2-Amino-ethoxy)-ethoxy]-acetyl)
For B12, the values for the Relative cAMP EC50 (with hGLP-1R; in test [1]; in test [2]) were 3.51 nM, 0.124 nM and 4.93 nM, respectively.

B13: Example 1110 (peptide)
chain: YXQGTFTSDXSQXLDXKAQXAFIEXLIAXGPSSGAPPPSGSEE
modifications: non-natural residues, acylated Lys, C-terminal amide; synthetic construct; SITE 2: note = 2-Aminoisobutyric Acid; SITE 10: note = 3-(4-Pyridyl)-L-alanine; SITE 13: note = alpha-methyl-leucine; SITE 16: note = L-ornithine; SITE 17: note = Lysine is chemically modified through conjugation of the epsilon-amino group of the Lysine side chain with (2-[2-(2-
In the case of B13, the Relative cAMP EC50 was 0.508 nM with hGLP-1R, 0.059 nM in test [1] and 5.91 nM in test [2].

B14: Example 1108 (peptide)
chain: YXQGTFTSDXSQXLDXKAQXAFIEXLIEXGPSSGAPPPSGSEE
modifications: non-natural residues; C18 diacid-γGlu-AEEA on Lys; C-terminal amide; synthetic construct; SITE 2: note = 2-Aminoisobutyric Acid; SITE 10: note = 3-(4-Pyridyl)-L-alanine; SITE 13: note = alpha-methyl-leucine; SITE 16: note = L-ornithine; SITE 17: note = Lysine is chemically modified through conjugation of the epsilon-amino group of the Lysine side chain with (2-[2-(2-
Consider B14, for which the Relative cAMP EC50 with hGLP-1R stood at 0.752 nM; in test [1], 0.0507 nM; in test [2], 4.96 nM.

B15: Example 693 (SEQ ID NO: 699) (peptide)
chain: YXQGTXTSDXXIXLDXKAAXEFIEXLVEGGPSSGAPPPSGS
modifications: synthetic construct; SITE 2: note = 2-Aminoisobutyric Acid; SITE 6: note = alpha-methyl-2-fluoro-L-phenylalanine; SITE 10: note = 3-(4-Pyridyl)-L-alanine; SITE 11: note = alpha-methyl-L-serine; SITE 13: note = alpha-methyl-leucine; SITE 16: note = L-ornithine; SITE 17: note = Lysine is chemically mo
As to B15, the Relative cAMP EC50 in the test with hGLP-1R was 0.161 nM; in test [1] it was 0.0104 nM; in test [2] it was 2.39 nM.

B16: Example 695 (SEQ ID NO: 701) (peptide)
chain: YXQGTXTSDXXIXLDXKAAXEFIEXLVEGGPSSGEPPPSGS
modifications: synthetic construct; SITE 2: note = 2-Aminoisobutyric Acid; SITE 6: note = alpha-methyl-2-fluoro-L-phenylalanine; SITE 10: note = 3-(4-Pyridyl)-L-alanine; SITE 11: note = alpha-methyl-L-serine; SITE 13: note = alpha-methyl-leucine; SITE 16: note = L-ornithine; SITE 17: note = Lysine is chemically mo
With B16, the values for the Relative cAMP EC50 (with hGLP-1R; in test [1]; in test [2]) were 0.254 nM, 0.0136 nM and 1.93 nM, respectively.
